# Source: patent US8846363B2, “Compositions of and methods of using sulfatases from Flavobacterium heparinum” (priority 2007, dated 2014)
# Columns and labels:
# [1] = Coupled 6-O-sulfatase/β-glucosidase fluorimetric plate assay (reaction conditions, steady-state kinetics); format: biochemical
# From the text: Indirect measurement of enzyme activity was also made using a fluorimetrically-based plate assay in which the prerequisite desulfation of the appropriate glucopyranoside 1→4 methlybelliferone substrate by either the 6-O-sulfatase or N-sulfamidase was coupled to the glucosidase-mediated hydrolysis of the stereo-specific 1→4 glycosidic linkage between the pyranose ring and the adjoining fluorophore. Release of the free fluorophore (4-MU) was monitored spectroscopically as described above for the arylsulfatase assay using 4-MU sulfate. The two sulfatase assays differed in the choice of substrate in accordance to their specificity as well as the glucosidase added during the second, […] step. For the 6-O-sulfatase, the hydrolysis of the substrate 4-MU-β-D-GlcNAc,6S at the 6-OH position was coupled to β-glucosidase purified from sweet almonds (MP Biomedicals, Solon, Ohio, Catalog No. 195197). Likewise, N-sulfamidase hydrolysis of 4-MU-α-D-GlcNS at the 2-amino position was coupled to α-glucosidase (MP Biomedicals, Catalog No. 153487). […] The presumption of the first (sulfatase) activity being the rate-limiting step was established experimentally. Reaction conditions were optimized to satisfy three related criteria: 1) linear readout of fluorescent signal which is directly proportional to sulfatase activity; 2) quantitative release of 4-MU by glucosidase activity under every biochemical condition examined and; 3) negligible fluorescent quenching of the free chromophore.
# For the 6-O-sulfatase/β-glucosidase assay, the standard reaction conditions included 2 μM recombinant enzyme, 50 mM sodium acetate buffer, pH 5.5, and 5 mM CaCl2 in a 20 μl reaction volume. 4-MU-GlcNAc,6S substrate concentration was varied from 0.1-2 mM. 2 μL of enzyme were added to each well of a microtiter plate (prechilled on ice), plate gently vortexed, and contents of each well spun down for 1 minute at 500×g, 4° C. […] Reactions were transferred to a black 96 well, flat-bottom FIA-plate and fluorescence measured as described above for the detection of free 4-MU. […]
# [2] = Desulfation of unsaturated heparin disaccharides by capillary electrophoresis; format: biochemical; conditions: ΔU±2SHNAc,6S, ΔU±2SHNS,6S (6-O-sulfatase); ΔU±2SHNS+6S (N-sulfamidase)
# Protocol: The ability of both enzymes to desulfate unsaturated heparin and chondroitin disaccharides was assessed essentially as described for capillary electrophoresis based compositional analyses of enzymatically generated glycosaminoglycan di- and tetra-saccharides (Venkataraman et al., 1999 Science 286, 537-542). For these studies, the following disaccharide substrates were tested: ΔUGlcNAc,6S; ΔU2SGlcNAc,6S; ΔUGlcNS; ΔUGlcNS,6S; ΔU2SGlcNS,6S; and ΔUGalNac,6S. Reactions included 500 μM substrate, 10 μM enzyme, 50 mM sodium acetate, pH 6.5 and +/−2 mM CaCl2 in a 20 μL reaction volume.
# [3] = Storage stability of purified enzymes; format: physicochemical; conditions: 4° C., ~10 mg/mL
# Protocol: Final protein concentrations were determined colorimetrically using the Bradford Assay (Bio-Rad, Hercules, Calif.) and confirmed by UV absorption spectroscopy using theoretical molar extinction coefficients (ε280) of 94,730 M^−1 (61,572 Da) and 86,340 (53,193 Da) for the NH2-terminally truncated ORF B (6-O-sulfatase) and ORF C(N-sulfamidase), respectively. These values were calculated for thrombin-cleaved proteins lacking a 6×His purification tag. Enzymes were stored at 4° C. at a concentration of ˜10 mg/mL.
Molecule,effect of Mg^+2 or Mn^+2 on activity ([1]; 1 mM or 5 mM divalent metal),activity remaining relative to the zero NaCl control ([1]; 1 M NaCl),activation by the presence of calcium ([1]; calcium added),desulfation of unsaturated heparin disaccharides [2],retention of enzyme activity on storage [3]
"Flavobacterium heparinum 6-O-sulfatase (ORF B), recombinant, NH2-terminal truncation lacking signal sequence, SEQ ID NO: 2 (Pedobacter heparinus DSM 2366) (protein, E. coli BL21(DE3), N-terminal 6xHis removed by thrombin) TLMSCQQPKPAESAKRPNIVFIMTDDHTIQAISAYGSKLVKTPNLDRIANEGMLFNNCFVTNAVCGPSRATILTGKYSHLNGLTDNSKVFDSTQVIYPQLLKKAGYQTAMIGKWHLGSTPMGFDYYSILPNQGQYYQPEFIENGHLVKEKGYVTDLITDKAIGFLEKRDHDKPFLMIYQHKAPHRNWLPAPRHLGMFDDTVFPEPANLLDDFKGRGRAAKEQLMNISTDMWPAWDLKMLSTAQLDSMAKLPVSPKFKDAKGDDYQQANDPSLDKARFFEVYNRMTDAEKVQWRKVYDKRVAEFKRLNPKGADLVRWKYQQYMRDYLACVVSVDENVGRLMDYLKKIGELDNTIIVYTSDQGFYLGEHGYFDKRFMYDESFRTPLMVRYPPSVKAGSVSNAFAMNLDFAPTLLDYAGVKIPADMQGLSLRPVLDNAGKSPENWRKAVYYHYYEFPSWHMVKRHYGIRTERYKLIHFYNDIDEWELYDMQKDPHEMQNLYNDKAYEPIIKDLKVQMKKLQVQYKDTNPTEAL",only negligible effects,less than 20%,2-3 fold,None of the unsaturated disaccharides were desulfated,Full enzyme activity was retained for several months
"Flavobacterium heparinum N-sulfamidase (ORF C), recombinant, NH2-terminal truncation lacking signal sequence, SEQ ID NO: 4 (Pedobacter heparinus DSM 2366) (protein, E. coli BL21(DE3), N-terminal 6xHis removed by thrombin) SCTSPEKKTDRPNILMIMSDNQSWNHVGSYGDQTVRTPNMDRIAKEGVRFTNAFCSSPSCTPARAGMLTGQDIWRLEDGGNLWGVLPVKYKVYPDLLEEAGYAIGFQGKGWGPGSFEANKRPRNPAGNEFKSFGAFLKDKKEGPWCYWISSHEPHRPYVEGSGEKAGIDPNKVKVPAYLPDHISIRKDIADYYAAVETFDRELGEALDQLKASGELDNTVIVVCSDNGWQMPRGLANLYDFGTHVPLIISWPGKFKQDVVADNLVTLNDLAPTFLQLGKVPVPADMTGKSLLPIVEAGKKDEKPRDYVVLGRERHAFVRRHGLGYPGRAIRTKDYLYIKNYEPNRWPAGDPPFYGDIDPYMFNWPGETKYYLIEHKDDPKVKSFFELGMGKRPAEELFDINKDPDELHNLAALPEYQKIKQELVAKLRNYLVATKDPRETNGNIQIWDTAAYFSEIDKTPKPSKEMQKRFKLDSSYNYLK",–,–,–,None of the unsaturated disaccharides were desulfated,Full enzyme activity was retained for several months
